Residue numbers refer to the chain shown, from its start. Names may count otherwise. “And” between values parts separate entries of the source, which are not always exact repeats. Identical values can stand only once. Values belong to the binder of their own block, whether it stands above or below them.
Assays:
[1] = target: T1, recombinant human Tau monomer, 2N4R isoform (amino acids 2-441) (human, UniProt P10636-8 2-441); assay: SPR, captured IgG, Tau monomer analyte, 1:1 model; fit-quality column: Yes
T1 construct: range 2-441; N-terminal His-tag removed with TEV protease; also called monomeric Tau
Procedure, shortened: (§1)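 First, IgGs from 1 mL culture were protein A purified and set to 0.1 mg/ml. Next, aliquots were stored at ~4° C. or stressed at 40° C. for two weeks. Then each prep was captured and probed with Tau monomer by multi-cycle SPR at 25° C., fitting a 1:1 binding model.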

[2] = target: T1, recombinant human Tau monomer, 2N4R …; assay: SPR; Normalized Rmax post-stress (2 weeks 40 C) / pre-stress
Procedure, shortened: as §1

[3] = target: T1, recombinant human Tau monomer, 2N4R …; assay: SPR detailed kinetics, hIgG captured, Tau monomer analyte
Procedure: Grafting onto consensus VH3, Vκ2 and Vκ1 frameworks was assessed. The heavy chain graft included murine residue at position 49 (Kabat numbering system). The Vκ2 graft included murine residues in framework positions 2 and 4. The Vκ1 graft included murine residues in framework positions 2, 4 and 43. Humanized variants were constructed by gene synthesis and subcloning into human IgG1 or IgG4 and Kappa chain mammalian expression vectors. Antibodies were expressed by co-transfection of the heavy and light chain plasmids into CHO cells and purified with affinity resin MabSelect Sure. Humanized variants were screened for affinity to human Tau monomer using the Biacore human IgG capture kit, a Series S CM5 chip and a Biacore T200 instrument. […] Association and dissociation of 100, 33, 11 and 3.7 nM human Tau monomer in 10 mM HEPES pH7.4, 150 mM NaCl, 0.05% Tween 20 (running buffer, HBSP) was monitored for 180 seconds and 600 seconds respectively at a flow rate of 30 μl/min. […]
Antibody variants hu37D3-H9.v1, hu37D3-H9.v2, hu37D3-H9.v5 and hu37D3-H9.v6 were characterized further by surface plasmon resonance with additional antibody concentrations and longer association/dissociation times. These variants were analyzed with a broader range of human Tau monomer concentrations (1.2, 3.7, 11.1, 11.1, 33.3, 100 nM) and increased association (300 seconds) and dissociation (1200 seconds) periods. […]

[4] = target: T1, recombinant human Tau monomer, 2N4R …; assay: SPR screen, hIgG captured, Tau monomer analyte
Procedure: Grafting onto consensus VH3, Vκ2 and Vκ1 frameworks was assessed. The heavy chain graft included murine residue at position 49 (Kabat numbering system). The Vκ2 graft included murine residues in framework positions 2 and 4. The Vκ1 graft included murine residues in framework positions 2, 4 and 43. Humanized variants were constructed by gene synthesis and subcloning into human IgG1 or IgG4 and Kappa chain mammalian expression vectors. Antibodies were expressed by co-transfection of the heavy and light chain plasmids into CHO cells and purified with affinity resin MabSelect Sure. Humanized variants were screened for affinity to human Tau monomer using the Biacore human IgG capture kit, a Series S CM5 chip and a Biacore T200 instrument. Antibodies were diluted to 2 μg/ml and captured for 15 seconds at 10 μl/min. Association and dissociation of 100, 33, 11 and 3.7 nM human Tau monomer in 10 mM HEPES pH7.4, 150 mM NaCl, 0.05% Tween 20 (running buffer, HBSP) was monitored for 180 seconds and 600 seconds respectively at a flow rate of 30 μl/min. A 1:1 binding model was applied to the results (Table 7).

[5] = target: T1, recombinant human Tau monomer, 2N4R …; assay: SPR, human Fab capture kit, Tau monomer analyte
Procedure: Affinity was assessed at 25° C. using a Biacore T200 instrument, the GE Biacore human FAb capture kit and a CM5 Series S chip. The hIgG were diluted to 0.5 μg/ml in 10 mM HEPES pH7.4, 150 mM NaCl, 0.05% Tween 20 (running buffer, HBSP) and captured at a flow rate of 10 μl/min for 180 seconds. Kinetic data was collected for Human Tau monomer injected at concentrations of 0, 0.4, 1.2, 3.7, 11, 11, 33 and 100 nM in HBSP, using a flow rate of 30 μl/min, a 300 second association phase and a 600 second dissociation phase. Between cycles the surface was regenerated using two sequential 60 second injections of 10 mM Glycine pH 2.1. Data was fit to a 1:1 binding model.

[6] = target: T1, recombinant human Tau monomer, 2N4R …; assay: SPR, hIgG captured, Tau monomer analyte
Procedure: Affinity was assessed at 25° C. using a Biacore T200 instrument, the GE Biacore human IgG capture kit and a CM5 Series S chip. The hIgG were diluted to 2 μg/ml in 10 mM HEPES pH7.4, 150 mM NaCl, 0.05% Tween 20 (running buffer, HBSP) and captured at a flow rate of 10 μl/min for 22 seconds. […] Between cycles the surface was regenerated using a 30 second injection of 3M Magnesium Chloride at 10 μl/min. A 1:1 binding model was fitted to the data and affinities for hu37D3-H9.v5 and hu37D3-H9.v5.3 (also referred to herein as hu37D3-H9.v5 N28D) calculated using kinetic analysis. Parameters used for the 1:1 fitting included the Instrument default of local fitting for the “RI” parameter.

[7] = target: T2, AVI-tag biotinylated monomeric flTau (human, UniProt P10636-8 1-441, site-specific biotin on AVI-tag); assay: capture ELISA, antibody on anti-IgG plate, biotinylated monoTau titrated, O.D.
T2 construct: also called monoTau; monomeric Tau
Procedure: (§2) For the oligoTau and monoTau capture ELISAs, antibodies contained in serum-free sterile hybridoma supernatants were immobilized on an anti-IgG coated plate at 500-fold dilution, followed by the incubation of oligoTau or monoTau, both with site-specific biotinylation via an AVI-tag. The target incubations started at 5 μg/mL and then were diluted 8- or 16-fold. Streptavidin-HRP and ABTS substrate was used for signal quantitation in a plate reader (Tecan, Switzerland). Results are expressed as O.D.

[8] = target: T3, AVI-tag biotinylated oligomeric flTau (human, UniProt P10636-8 1-441, site-specific biotin on AVI-tag); assay: capture ELISA, antibody on anti-IgG plate, biotinylated oligoTau titrated, O.D.
T3 construct: also called oligoTau; oligomeric Tau
Procedure: as §2

[9] = target: T4, full-length human Tau (flTau) (human, UniProt P10636-8 1-441); assay: indirect ELISA, flTau coated, hybridoma supernatant diluted, O.D.
T4 construct: range 1-441; bought (SignalChem); also called human Tau-441
Procedure: Coating was done overnight in phosphate-buffered saline (PBS) at 4° C. Plates were washed thoroughly with 0.05% Tween-20/PBS and then blocked with 1% bovine serum albumin (BSA) in 0.05% Tween-20/PBS for 1 hr at 37° C. The antibody contained in the hybridoma supernatant was then added at the indicated dilutions, and incubated for 2 hrs at 37° C. after which the plates were washed as described previously.
For the indirect ELISAs, an AP-conjugated anti-mouse IgG secondary antibody (Jackson ImmunoResearch Laboratories, United Kingdom) was added at 1/6000 dilution in 0.05% Tween-20/PBS for 2 hr at 37° C. After the final wash, plates were incubated with p-nitrophenyl phosphate disodium hexahydrate (pNPP; Sigma-Aldrich, Switzerland) phosphatase substrate solution, and read at 405 nm using an ELISA plate reader (Tecan, Switzerland). Results are expressed as optical densities (O.D.).

[10] = target: T1, recombinant human Tau monomer, 2N4R …; assay: SPR screen, hIgG captured, Tau monomer analyte; mean of n = 3
Text: Antibody 125B11-H3 was humanized onto VH3 and Vκ1 consensus frameworks. The heavy chain graft included murine residues at position 78 (Kabat numbering system). The Vκ1 graft included murine residues in framework positions 43 and 87. The light chain of 113F5-F7 was also humanized onto the Vκ1 framework, with additional murine residues at framework positions 43 and 87. Humanized variant heavy chains (125B11) and light chains (125B11 and 113F5-F7) were co-transfected in multiple combinations and purified in 96-well format as described above. Humanized variants were then screened for affinity for human Tau monomer using the Biacore human IgG capture kit, a Series S CM5 chip and a Biacore T200 instrument. Antibodies were diluted to 2 μg/ml and captured for 15 seconds at 10 μl/min. Association and dissociation of 0, 100 and 500 nM human Tau monomer in HBSP was monitored for 180s and 300s respectively at a flow rate of 40 μl/min. A 1:1 binding model was applied to the results (Table 9).
Variants hu125B11.v17 (HC3+LC1), hu125B11.v26 (HC4+LC2) and hu125B 11.v28 (HC4+LC4) were selected for high-resolution kinetic analysis based on the affinity screen (Table 10). Antibody 94B2-C1 was humanized onto VH1 and Vx2 frameworks. The heavy chain graft also included murine residues at position 28, 29, 67, 69, 71, and 73 (Kabat numbering system). […]

T1 sequence (P10636 other isoform, or with tags, fused parts or gaps limits assumed): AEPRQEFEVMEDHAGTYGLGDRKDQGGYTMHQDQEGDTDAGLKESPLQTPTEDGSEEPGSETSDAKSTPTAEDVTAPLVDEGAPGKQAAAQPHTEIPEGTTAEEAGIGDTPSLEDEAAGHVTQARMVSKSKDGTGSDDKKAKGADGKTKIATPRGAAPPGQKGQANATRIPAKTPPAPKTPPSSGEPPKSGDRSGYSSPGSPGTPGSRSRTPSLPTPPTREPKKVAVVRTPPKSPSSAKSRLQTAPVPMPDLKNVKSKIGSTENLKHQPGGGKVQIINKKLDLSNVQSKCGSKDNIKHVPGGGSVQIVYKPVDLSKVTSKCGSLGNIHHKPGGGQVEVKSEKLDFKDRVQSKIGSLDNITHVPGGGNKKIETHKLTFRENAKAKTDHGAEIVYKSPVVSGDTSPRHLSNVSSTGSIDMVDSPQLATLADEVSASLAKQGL
T3 sequence (P10636 other isoform, or with tags, fused parts or gaps limits assumed): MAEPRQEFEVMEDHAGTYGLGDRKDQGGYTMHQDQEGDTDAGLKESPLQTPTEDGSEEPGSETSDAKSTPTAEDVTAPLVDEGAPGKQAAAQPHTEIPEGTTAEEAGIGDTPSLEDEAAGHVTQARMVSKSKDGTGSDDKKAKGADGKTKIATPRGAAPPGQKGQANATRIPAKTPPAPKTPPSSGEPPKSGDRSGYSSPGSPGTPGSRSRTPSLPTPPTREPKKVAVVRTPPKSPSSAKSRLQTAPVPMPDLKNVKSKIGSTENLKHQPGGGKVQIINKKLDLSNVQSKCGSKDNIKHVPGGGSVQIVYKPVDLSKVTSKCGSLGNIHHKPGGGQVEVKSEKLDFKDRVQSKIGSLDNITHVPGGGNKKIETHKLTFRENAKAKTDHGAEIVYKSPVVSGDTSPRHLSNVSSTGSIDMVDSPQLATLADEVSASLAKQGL

B2: hu37D3-H9.v28.A4 hIgG4.S228P.YTE (antibody, V domains shown)
VH: EVQLVESGGGLVQPGGSLRLSCAASGLIFRSYGMSWVRQAPGKGLEWVATINSGGTYTYYPDSVKGRFTISRDNSKNTLYLQMNSLRAEDTAVYYCANSYSGAMDYWGQGTLVTVSS
VL: DDVLTQTPLSLPVTPGQPASISCRSSQSIVHSNGNTYLEWYLQKPGQSPQLLIYKVSNRFSGVPDRFSGSGSGTDFTLKISRVEAEDVGVYYCFQGSLVPWTFGQGTKVEIKR
notes: also called hu37D3.v28.A4 hIgG4-S228P.YTE
Kd [5]: 1.4 nM | koff [5]: 0.0009 s⁻¹ | kon [5]: 600000 M⁻¹ s⁻¹

B5: 15C6-A7 (antibody, V domains shown)
VH: EVQLQQSGPELVKPGASVMMTCKASGYTFTDYYMKWVKQSNGKSLEWIGDLDPYTGGANYNQKFKGKATLTVDKSSSTAYMHLNSLTSEDSAVYYCARSRGYGDSFAYWGQGTLVTVSA
VL: DVLMTQTPLSLPVSLGDQASISCRSSQNIVHSNGNTYLEWYLQKPGQSPKLLIYKVSNRFSGVPDKFSGSGSGTDFTLKISRVEAEDLGVYFCFQGSHVPPTFGGGTKLEIK
notes: hybridoma supernatant
binding result [7]: binds | binding result [8]: binds | binding result [9]: binds

B6: 73H6-B8 (antibody, V domains shown)
VH: QVQLKESGPGLVAPSQSLSITCTISGFSLTSYGVHWVRQPPGKGLEWLVVIWSDGSTTYNSALKSRLSISKDNSKSQVFLKMNSLQTDDTAMYYCARQGGFITTAYYAMDYWGQGTSVTVSS
VL: DIVMSQSPSSLAVSAGEKVTMSCKSSQSLLNSRTRKNYLAWYQQKPGQSPKLLIYWASTRESGVPDRFTGSGSGTDFTLTISSVQAEDLAVYYCKQSYNLYTFGGGTKLEIK
notes: hybridoma supernatant
binding result [7]: binds | binding result [8]: binds

B7: hu94B2 HC1 + LC9 (antibody, V domains shown)
VH: EVQLVQSGAEVKKPGASVKVSCKASGYSLTGYTMNWVRQAPGQGLEWIGLISPYNGVTSYNQKFKGRATLTVDKSTSTAYLELSSLRSEDTAVYYCARQGAYWGQGTLVTVSS
VL: DVVMTQTPLSLPVTPGQPASISCKSSQSLLDSDGKTYLNWLLQKPGQSPQRLIYLVSKLDSGVPDRFSGSGSGTDFTLKISRVEAEDVGVYYCWQGTHFPWTFGQGTKVEIK
Kd [10]: 3.8 nM

B8: 14F5-D9 (antibody, V domains shown)
VH: EVKLVESGGGLVQPGGSLRLSCATSGFTFSDFYMEWVRQSPGKRLEWIAASKNKANDYTTEYNASVKDRFFVSRDTSQSILYLQMNALRAEDTAIYYCARDALGTVFAYWGQGTLVTVSA
VL: DVVMTQTPLSLPVSLGDQASISCRSSQSLVHSNGNTYLHWYLQKPGQSPKLLIYKVFNRFSGVPDRFSGSGSGTDFTLKISRVEAEDLGVYFCSQSTLVPLTFGAGTKLELK
notes: hybridoma supernatant
binding result [7]: binds | binding result [8]: binds | binding result [9]: binds

The remaining lines, values ahead:

Kd [1]: 0.9 nM | Stability Index [2]: 73% | Kd [3]: 0.8 nM | Kd [4]: 1.9 nM
B1: hu37D3-H9.v5 (antibody, V domains shown)
VH: B2 VH
VL: EDVLTQTPLSLPVTPGQPASISCRSSQSIVHSNGNTYFEWYLQKPGQSPQLLIYKVSNRFSGVPDRFSGSGSGTDFTLKISRVEAEDVGVYYCFQGSLVPWTFGQGTKVEIK
notes: human IgG1 or IgG4, kappa

Kd [3]: 1.1 nM and 1 nM | Kd [4]: 4.1 nM
B3: hu37D3-H9.v1 (antibody, V domains shown)
VH: B2 VH
VL: EDQLTQSPSSLSASVGDRVTITCRSSQSIVHSNGNTYFEWYQQKPGKSPKLLIYKVSNRFSGVPSRFSGSGSGTDFTLTISSLQPEDFATYYCFQGSLVPWTFGQGTKVEIK
notes: human IgG1 or IgG4, kappa

Kd [6]: 160 nM | fold reduction in affinity against hu37D3-H9.v5 [6]: > 100 fold | Kd [1]: 73.2 nM | Stability Index [2]: 70%
B4: hu37D3-H9.v5 N28D hIgG1 (antibody, name in Kabat numbering, V domains shown)
VH: B2 VH
VL: B1 VL with N33D
notes: human IgG1, kappa; also called hu37D3-H9.v5.3

Reference: US20190367592A1 (AC IMMUNE, published 2019)
